For the assay, the target named is HA-tagged full-length pebble (Pbl) (Drosophila). The assay can be described thus: co-IP.

Consider “Sema-1a ICD[36G/52A] (domain or fragment)”, for which the percent reduction in binding against wild-type ICD was 33%.

As for “Sema-1a ICD[Δ31–60] (domain or fragment)”, the percent reduction in binding against wild-type ICD stood at 44%.

For the origin of these results see PMC3520155.
